Reference: patent US20210388087A1 (Chugai, published 2021)
Where a chain is given by its changes, count along the chain named. Numbers in names are those of the source. Values belong to the binder of their own block, whether it stands above or below them.

Biological target: T1, Human CD3eg linker (human)
T1 construct: Single-chain construct; also called recombinant human CD3
T1 chain: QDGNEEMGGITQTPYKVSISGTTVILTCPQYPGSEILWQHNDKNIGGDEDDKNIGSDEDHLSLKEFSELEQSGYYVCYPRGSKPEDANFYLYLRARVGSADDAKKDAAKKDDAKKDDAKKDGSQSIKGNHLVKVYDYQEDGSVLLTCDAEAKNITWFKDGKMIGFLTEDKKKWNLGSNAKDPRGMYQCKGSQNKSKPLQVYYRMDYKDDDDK
Experiment: SPR; fold vs parent H183/L072

fold change of affinity: 0 fold
B2: H183/L072 VL N28G (antibody, name in Kabat numbering, V domains shown)
VH: QVQLVESGGGLVQPGRSLRLSCAASGFTFSNAWMHWVRQAPGKGLEWVAQIKDKGNAYAAYYAPSVKGRFTISRDDSKNSIYLQMNSLKTEDTAVYYCHYVHYASASTVLPAFGVDAWGQGTTVTVSS
VL: DIVMTQSPLSLPVTPGEPASISCQASQELVHMGRNTYLHWYQQKPGQAPRLLIYKVSNRFPGVPDRFSGSGSGTDFTLKISRVEAEDVGVYYCAQGTSVPFTFGQGTKLEIK

fold change of affinity: 0.9 fold
B3: H183/L072 VL N30W (antibody, name in Kabat numbering, V domains shown)
VH: B2 VH
VL: B2 VL with G33N, N35W

fold change of affinity: 0.8 fold
B4: H183/L072 VL N30H (antibody, name in Kabat numbering, V domains shown)
VH: B2 VH
VL: B2 VL with G33N, N35H

fold change of affinity: 0.9 fold
B7: H183/L072 VL N53M (antibody, name in Kabat numbering, V domains shown)
VH: B2 VH
VL: B2 VL with G33N, N58M

fold change of affinity: 0 fold
B8: H183/L072 VL N28T (antibody, name in Kabat numbering, V domains shown)
VH: B2 VH
VL: B2 VL with G33T

fold change of affinity: 0.1 fold
B9: H183/L072 VL N30T (antibody, name in Kabat numbering, V domains shown)
VH: B2 VH
VL: B2 VL with G33N, N35T

fold change of affinity: 0.5 fold
B12: H183/L072 VL N30V (antibody, name in Kabat numbering, V domains shown)
VH: B2 VH
VL: B2 VL with G33N, N35V

fold change of affinity: 0 fold
B13: H183/L072 VL N30S (antibody, name in Kabat numbering, V domains shown)
VH: B2 VH
VL: B2 VL with G33N, N35S

fold change of affinity: 0 fold
B15: H183/L072 VL N28H (antibody, name in Kabat numbering, V domains shown)
VH: B2 VH
VL: B2 VL with G33H

fold change of affinity: 1.2 fold
B16: H183/L072 VL N30Q (antibody, name in Kabat numbering, V domains shown)
VH: B2 VH
VL: B2 VL with G33N, N35Q

fold change of affinity: 0.3 fold
B17: H183/L072 VL N30A (antibody, name in Kabat numbering, V domains shown)
VH: B2 VH
VL: B2 VL with G33N, N35A

fold change of affinity: 1 fold
B18: H183/L072 VL M27eW (antibody, name in Kabat numbering, V domains shown)
VH: B2 VH
VL: B2 VL with M32W, G33N

fold change of affinity: 0.6 fold
B19: H183/L072 VL N53A (antibody, name in Kabat numbering, V domains shown)
VH: B2 VH
VL: B2 VL with G33N, N58A

fold change of affinity: 0 fold
B20: H183/L072 VL N28K (antibody, name in Kabat numbering, V domains shown)
VH: B2 VH
VL: B2 VL with G33K

fold change of affinity: 0.8 fold
B21: H183/L072 VL N53Q (antibody, name in Kabat numbering, V domains shown)
VH: B2 VH
VL: B2 VL with G33N, N58Q

fold change of affinity: 0 fold
B22: H183/L072 VL N30G (antibody, name in Kabat numbering, V domains shown)
VH: B2 VH
VL: B2 VL with G33N, N35G

fold change of affinity: 0.5 fold
B24: H183/L072 VL N30I (antibody, name in Kabat numbering, V domains shown)
VH: B2 VH
VL: B2 VL with G33N, N35I

fold change of affinity: 1.2 fold
B25: H183/L072 VL M27eS (antibody, name in Kabat numbering, V domains shown)
VH: B2 VH
VL: B2 VL with M32S, G33N

fold change of affinity: 0.5 fold
B27: H183/L072 VL N53E (antibody, name in Kabat numbering, V domains shown)
VH: B2 VH
VL: B2 VL with G33N, N58E

fold change of affinity: 0.6 fold
B28: H183/L072 VL N53P (antibody, name in Kabat numbering, V domains shown)
VH: B2 VH
VL: B2 VL with G33N, N58P

fold change of affinity: 0.6 fold
B30: H183/L072 VL N53L (antibody, name in Kabat numbering, V domains shown)
VH: B2 VH
VL: B2 VL with G33N, N58L

fold change of affinity: 0 fold
B32: H183/L072 VL N28E (antibody, name in Kabat numbering, V domains shown)
VH: B2 VH
VL: B2 VL with G33E

fold change of affinity: 0.6 fold
B33: H183/L072 VL N53G (antibody, name in Kabat numbering, V domains shown)
VH: B2 VH
VL: B2 VL with G33N, N58G

fold change of affinity: 0 fold
B34: H183/L072 VL N28A (antibody, name in Kabat numbering, V domains shown)
VH: B2 VH
VL: B2 VL with G33A

fold change of affinity: 0.9 fold
B38: H183/L072 VL N30F (antibody, name in Kabat numbering, V domains shown)
VH: B2 VH
VL: B2 VL with G33N, N35F

The remaining lines, values behind:

B1: H183/L072 VL M27eP (antibody, name in Kabat numbering, V domains shown)
VH: B2 VH
VL: B2 VL with M32P, G33N
fold change of affinity: 1.2 fold

B5: H183/L072 VL N28Q (antibody, name in Kabat numbering, V domains shown)
VH: B2 VH
VL: B2 VL with G33Q
fold change of affinity: 0 fold

B6: H183/L072 VL N53F (antibody, name in Kabat numbering, V domains shown)
VH: B2 VH
VL: B2 VL with G33N, N58F
fold change of affinity: 0.7 fold

B10: H183/L072 VL N30Y (antibody, name in Kabat numbering, V domains shown)
VH: B2 VH
VL: B2 VL with G33N, N35Y
fold change of affinity: 0.8 fold

B11: H183/L072 VL N28S (antibody, name in Kabat numbering, V domains shown)
VH: B2 VH
VL: B2 VL with G33S
fold change of affinity: 0 fold

B14: H183/L072 VL N30L (antibody, name in Kabat numbering, V domains shown)
VH: B2 VH
VL: B2 VL with G33N, N35L
fold change of affinity: 0.5 fold

B23: H183/L072 VL M27eV (antibody, name in Kabat numbering, V domains shown)
VH: B2 VH
VL: B2 VL with M32V, G33N
fold change of affinity: 0.8 fold

B26: H183/L072 VL N28D (antibody, name in Kabat numbering, V domains shown)
VH: B2 VH
VL: B2 VL with G33D
fold change of affinity: 0 fold

B29: H183/L072 VL M27eY (antibody, name in Kabat numbering, V domains shown)
VH: B2 VH
VL: B2 VL with M32Y, G33N
fold change of affinity: 0.9 fold

B31: H183/L072 VL N30M (antibody, name in Kabat numbering, V domains shown)
VH: B2 VH
VL: B2 VL with G33N, N35M
fold change of affinity: 1.6 fold

B35: H183/L072 VL N30E (antibody, name in Kabat numbering, V domains shown)
VH: B2 VH
VL: B2 VL with G33N, N35E
fold change of affinity: 0.3 fold

B36: H183/L072 VL N30R (antibody, name in Kabat numbering, V domains shown)
VH: B2 VH
VL: B2 VL with G33N, N35R
fold change of affinity: 1.5 fold

B37: H183/L072 VL N53H (antibody, name in Kabat numbering, V domains shown)
VH: B2 VH
VL: B2 VL with G33N, N58H
fold change of affinity: 1.2 fold

B39: H183/L072 VL M27eT (antibody, name in Kabat numbering, V domains shown)
VH: B2 VH
VL: B2 VL with M32T, G33N
fold change of affinity: 1.2 fold

B40: H183/L072 VL M27eQ (antibody, name in Kabat numbering, V domains shown)
VH: B2 VH
VL: B2 VL with M32Q, G33N
fold change of affinity: 1.1 fold

B41: H183/L072 VL N53D (antibody, name in Kabat numbering, V domains shown)
VH: B2 VH
VL: B2 VL with G33N, N58D
fold change of affinity: 0.2 fold

B42: H183/L072 VL N30K (antibody, name in Kabat numbering, V domains shown)
VH: B2 VH
VL: B2 VL with G33N, N35K
fold change of affinity: 1.3 fold

B43: H183/L072 VL N53K (antibody, name in Kabat numbering, V domains shown)
VH: B2 VH
VL: B2 VL with G33N, N58K
fold change of affinity: 1.4 fold

B44: H183/L072 VL M27eR (antibody, name in Kabat numbering, V domains shown)
VH: B2 VH
VL: B2 VL with M32R, G33N
fold change of affinity: 1.4 fold

B45: H183/L072 VL N30D (antibody, name in Kabat numbering, V domains shown)
VH: B2 VH
VL: B2 VL with G33N, N35D
fold change of affinity: 0.1 fold
